Ends that are not written are not given here.
What was measured:
[1] = target: T1, Recombinant Human Tumor Necrosis Factor-alpha (TNF-alpha) (human, UniProt P01375 77-233); assay: SPR (Biacore 3000, CM5 chip), linker modified peptide immobilized, TNF-alpha as analyte, Test Method A; TNF-alpha as analyte
T1 construct: Commercial reagent; also called TNFα
Procedure: (§1) The following Test Method A was used for determining the binding affinity (KD) of SEQ ID NO: 1 for EGF and TNF-[…] Binding experiments were performed using Biacore 3000 optical biosensors equipped with research-grade CM5 sensor chips (GE Healthcare Bio-Sciences Corporation). The reagents used for the amine-coupling steps [(1-ethyl-3-(3-dimethylaminopropyl)-carbodiimide (EDC); N-hydroxysuccinimide (NHS); and ethanolamine hydrochloride-NaOH (1 M, pH 8.5)] were obtained from GE Healthcare Bio-Sciences Corporation. In order to efficiently immobilize the peptide on the sensor chips, a modified version of SEQ ID NO:1 was prepared by SPPS in which a “CK” amino acid linker sequence was added to the N-terminal end of the SEQ ID NO: 1 peptide (i.e. linker modified version of SEQ ID NO: 1 for immobilization being […]). A standard coupling protocol was employed to immobilize the linker modified version of SEQ ID NO: 1 via the lysine residues. The immobilization was performed at 25° C. using HBS-EP as the running buffer. The CM-dextran surfaces of the sensor chip flow cells were activated by a seven minute injection (20 microliters/minute) of freshly prepared 1:1 50 mM NHS: 200 mM EDC. A solution of linker modified SEQ ID NO: 1 in acetic acid (20 mM, pH 5.5) was injected to target 200 response units (RU). […]

[2] = target: T2, Recombinant Human Epidermal Growth Factor (EGF) (human, UniProt P01133 971-1023); assay: SPR (Biacore 3000, CM5 chip), linker modified peptide immobilized, EGF as analyte, Test Method A; EGF as analyte
T2 construct: Commercial reagent; also called EGF protein
Procedure: as §1

[3] = target: T2, Recombinant Human Epidermal Growth …; assay: SPR (Biacore 3000, CM5 chip), linker modified peptide immobilized by amine coupling, EGF analyte 62.5-1000 nM, 25 C, 1:1 Langmuir global fit
Procedure: as §1

[4] = target: T1, Recombinant Human Tumor Necrosis …; assay: SPR (Biacore 3000, CM5 chip), linker modified peptide immobilized, TNF-alpha as analyte, 25 C
Procedure: as §1

[5] = target: T2, Recombinant Human Epidermal Growth …; assay: dot blot, peptide spotted on nitrocellulose, EGF in solution, anti-EGF-IgG-HRP detection
Procedure: SEQ ID NO: 1 (1 microliter of a 10 nM solution in PBS containing 3 wt. % DMSO) and SEQ ID NO: 2 (1 microliter of a 10 nM solution in PBS containing 3 wt. % DMSO) were individually spotted at separate sites on a nitrocellulose membrane (obtained from Thermo Fisher Scientific, Waltham, Mass.) and the membrane was dried in air for about 30 minutes. The membrane was then incubated in 25 mL of blocking buffer (3 wt. % BSA in PBS) for one hour at room temperature. The membrane was washed three times (15 minutes for each wash) with 15 mL portions of fresh PBST. The washed membrane was incubated with EGF protein [10 microliters of a 100 ng/mL solution in blocking buffer (3 wt. % BSA in PBS)] with gentle agitation for one hour. The membrane was again washed three times (15 minutes for each wash) with 15 mL portions of fresh PBST. The washed membrane was incubated with anti-EGF-IgG-HRP [1:5000 dilution in 10 mL of the blocking buffer (3 wt. % BSA in PBS)] for one hour with gentle agitation. Following the incubation, the membrane was washed three times (15 minutes for each wash) with 15 mL portions of fresh PBST. The washed membrane was incubated with 10 mL of the development solution for horseradish peroxidase (TMB-Blotting Substrate Solution, Pierce-Fisher Scientific, Rockford, Ill.) with gentle agitation. The color development was stopped by adding water.

[6] = target: T2, Recombinant Human Epidermal Growth …; assay: dot blot, EGF spotted on nitrocellulose, biotinylated peptide in solution, Streptavidin-HRP detection
Procedure: EGF (1 microliter of a 10 nM solution in PBS was spotted a nitrocellulose membrane (obtained from Thermo Fisher Scientific) and the membrane was dried in air for about 30 minutes. The membrane was then incubated in 15 mL of blocking buffer (3 wt. % BSA in PBS) for one hour at room temperature. The membrane was washed three times (15 minutes for each wash) with 15 mL portions of fresh PBST. The washed membrane was incubated with Biotinylated SEQ ID NO: 1 [10 mL of a 10 ng/mL solution in blocking buffer (3 wt. % BSA in PBS)] with gentle agitation for one hour. The membrane was again washed three times (15 minutes for each wash) with 15 mL portions of fresh PBST. The washed membrane was incubated with Streptavidin-HRP [1:5000 dilution in 10 mL of the blocking buffer (3 wt. % BSA in PBS)] for 30 minutes with gentle agitation. Following the incubation, the membrane was washed three times (15 minutes for each wash) with 15 mL portions of fresh PBST. The washed membrane was incubated with 10 mL of the development solution for horseradish peroxidase (TMB-Blotting Substrate Solution, Pierce-Fisher Scientific) with gentle agitation. The color development was stopped by adding water. A dark spot developed at the application site on the membrane indicating affinity of SEQ ID NO: 1 for EGF.

T2 sequence (P01133 971-1023 limits assumed): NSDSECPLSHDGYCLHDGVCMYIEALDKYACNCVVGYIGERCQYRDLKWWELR
T1 sequence (P01375 77-233 limits assumed): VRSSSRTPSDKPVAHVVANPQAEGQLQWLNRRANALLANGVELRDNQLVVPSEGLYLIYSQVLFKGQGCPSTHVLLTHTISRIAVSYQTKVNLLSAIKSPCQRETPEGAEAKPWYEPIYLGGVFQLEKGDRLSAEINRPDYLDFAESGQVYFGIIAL

B1: linker modified version of SEQ ID NO: 2 (CKNVNWWSHWWHATD) (peptide)
peptide: CKNVNWWSHWWHATD
modifications: not fully specified (N-terminus, C-terminus); also: immobilized on CM5 chip by amine coupling or conjugated to iodoacetyl magnetic beads via linker cysteine
- Kd [1]: 2450 µM
- Kd [2]: 2.6 µM

B2: linker modified version of SEQ ID NO: 1 (CKYVSPGMKNVNWWSHWWHATD) (peptide)
peptide: CKYVSPGMKNVNWWSHWWHATD
modifications: not fully specified (N-terminus, C-terminus); also: immobilized on CM5 chip by amine coupling via lysine residues
- Kd [3]: 0.706 µM
- binding result [4]: no binding

B3: SEQ ID NO: 2 peptide (KNVNWWSHWWHATD) (peptide)
peptide: Ac-KNVNWWSHWWHATD-NH2
notes: Chemically synthesized (SPPS, GenScript)
- binding result [5]: binds

Binder: YVSPGMKNVNWWSHWWHATD-NH2 (not fully specified (N-terminus); also: biotinylated, site not given here) [Biotinylated SEQ ID NO: 1]
- binding result [6]: binds

B4: SEQ ID NO: 1 peptide (YVSPGMKNVNWWSHWWHATD) (peptide)
peptide: Ac-YVSPGMKNVNWWSHWWHATD-NH2
notes: as for B3
- binding result [5]: binds

From patent US20200181198A1 (3M INNOVATIVE PROPERTIES, published 2020)
